The values that follow come from US20210388087A1 (Chugai, published 2021).

T1: Human CD3eg linker (human)
T1 construct: single-chain construct; also called recombinant human CD3
T1 chain: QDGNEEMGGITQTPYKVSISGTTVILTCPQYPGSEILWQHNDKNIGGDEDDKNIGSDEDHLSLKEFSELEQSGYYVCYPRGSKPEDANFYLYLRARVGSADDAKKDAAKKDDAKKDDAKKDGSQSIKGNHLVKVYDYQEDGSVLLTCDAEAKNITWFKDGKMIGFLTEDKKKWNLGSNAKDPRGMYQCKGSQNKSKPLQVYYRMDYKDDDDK

B1: dBBDu183H L100dW/dBBDu072L (antibody, name in Kabat numbering, V domains shown)
VH: QVQLVESGGGLVQPGRSLRLSCAASGFTFSNAWMHWVRQAPGKGLEWVAQIKDKGNAYAAYYAPSVKGRFTISRDDSKNSIYLQMNSLKTEDTAVYYCHYVHYASASTVWPAFGVDAWGQGTTVTVSS
VL: DIVMTQSPLSLPVTPGEPASISCQASQELVHMNRNTYLHWYQQKPGQAPRLLIYKVSNRFPGVPDRFSGSGSGTDFTLKISRVEAEDVGVYYCAQGTSVPFTFGQGTKLEIK
B2: dBBDu183H P61S/dBBDu072L (antibody, name in Kabat numbering, V domains shown)
VH: QVQLVESGGGLVQPGRSLRLSCAASGFTFSNAWMHWVRQAPGKGLEWVAQIKDKGNAYAAYYASSVKGRFTISRDDSKNSIYLQMNSLKTEDTAVYYCHYVHYASASTVLPAFGVDAWGQGTTVTVSS
VL: DIVMTQSPLSLPVTPGEPASISCQASQELVHMNRNTYLHWYQQKPGQAPRLLIYKVSNRFPGVPDRFSGSGSGTDFTLKISRVEAEDVGVYYCAQGTSVPFTFGQGTKLEIK
B3: dBBDu183H P61Y/dBBDu072L (antibody, name in Kabat numbering, V domains shown)
VH: QVQLVESGGGLVQPGRSLRLSCAASGFTFSNAWMHWVRQAPGKGLEWVAQIKDKGNAYAAYYAYSVKGRFTISRDDSKNSIYLQMNSLKTEDTAVYYCHYVHYASASTVLPAFGVDAWGQGTTVTVSS
VL: DIVMTQSPLSLPVTPGEPASISCQASQELVHMNRNTYLHWYQQKPGQAPRLLIYKVSNRFPGVPDRFSGSGSGTDFTLKISRVEAEDVGVYYCAQGTSVPFTFGQGTKLEIK
B4: dBBDu183H P61N/dBBDu072L (antibody, name in Kabat numbering, V domains shown)
VH: QVQLVESGGGLVQPGRSLRLSCAASGFTFSNAWMHWVRQAPGKGLEWVAQIKDKGNAYAAYYANSVKGRFTISRDDSKNSIYLQMNSLKTEDTAVYYCHYVHYASASTVLPAFGVDAWGQGTTVTVSS
VL: DIVMTQSPLSLPVTPGEPASISCQASQELVHMNRNTYLHWYQQKPGQAPRLLIYKVSNRFPGVPDRFSGSGSGTDFTLKISRVEAEDVGVYYCAQGTSVPFTFGQGTKLEIK
B5: dBBDu183H P61E/dBBDu072L (antibody, name in Kabat numbering, V domains shown)
VH: QVQLVESGGGLVQPGRSLRLSCAASGFTFSNAWMHWVRQAPGKGLEWVAQIKDKGNAYAAYYAESVKGRFTISRDDSKNSIYLQMNSLKTEDTAVYYCHYVHYASASTVLPAFGVDAWGQGTTVTVSS
VL: DIVMTQSPLSLPVTPGEPASISCQASQELVHMNRNTYLHWYQQKPGQAPRLLIYKVSNRFPGVPDRFSGSGSGTDFTLKISRVEAEDVGVYYCAQGTSVPFTFGQGTKLEIK
B6: dBBDu183H P100eH/dBBDu072L (antibody, name in Kabat numbering, V domains shown)
VH: QVQLVESGGGLVQPGRSLRLSCAASGFTFSNAWMHWVRQAPGKGLEWVAQIKDKGNAYAAYYAPSVKGRFTISRDDSKNSIYLQMNSLKTEDTAVYYCHYVHYASASTVLHAFGVDAWGQGTTVTVSS
VL: DIVMTQSPLSLPVTPGEPASISCQASQELVHMNRNTYLHWYQQKPGQAPRLLIYKVSNRFPGVPDRFSGSGSGTDFTLKISRVEAEDVGVYYCAQGTSVPFTFGQGTKLEIK
B7: dBBDu183H P61Q/dBBDu072L (antibody, name in Kabat numbering, V domains shown)
VH: QVQLVESGGGLVQPGRSLRLSCAASGFTFSNAWMHWVRQAPGKGLEWVAQIKDKGNAYAAYYAQSVKGRFTISRDDSKNSIYLQMNSLKTEDTAVYYCHYVHYASASTVLPAFGVDAWGQGTTVTVSS
VL: DIVMTQSPLSLPVTPGEPASISCQASQELVHMNRNTYLHWYQQKPGQAPRLLIYKVSNRFPGVPDRFSGSGSGTDFTLKISRVEAEDVGVYYCAQGTSVPFTFGQGTKLEIK
B8: dBBDu183H P61G/dBBDu072L (antibody, name in Kabat numbering, V domains shown)
VH: QVQLVESGGGLVQPGRSLRLSCAASGFTFSNAWMHWVRQAPGKGLEWVAQIKDKGNAYAAYYAGSVKGRFTISRDDSKNSIYLQMNSLKTEDTAVYYCHYVHYASASTVLPAFGVDAWGQGTTVTVSS
VL: DIVMTQSPLSLPVTPGEPASISCQASQELVHMNRNTYLHWYQQKPGQAPRLLIYKVSNRFPGVPDRFSGSGSGTDFTLKISRVEAEDVGVYYCAQGTSVPFTFGQGTKLEIK
B9: dBBDu183H P61F/dBBDu072L (antibody, name in Kabat numbering, V domains shown)
VH: QVQLVESGGGLVQPGRSLRLSCAASGFTFSNAWMHWVRQAPGKGLEWVAQIKDKGNAYAAYYAFSVKGRFTISRDDSKNSIYLQMNSLKTEDTAVYYCHYVHYASASTVLPAFGVDAWGQGTTVTVSS
VL: DIVMTQSPLSLPVTPGEPASISCQASQELVHMNRNTYLHWYQQKPGQAPRLLIYKVSNRFPGVPDRFSGSGSGTDFTLKISRVEAEDVGVYYCAQGTSVPFTFGQGTKLEIK
B10: dBBDu183H P61K/dBBDu072L (antibody, name in Kabat numbering, V domains shown)
VH: QVQLVESGGGLVQPGRSLRLSCAASGFTFSNAWMHWVRQAPGKGLEWVAQIKDKGNAYAAYYAKSVKGRFTISRDDSKNSIYLQMNSLKTEDTAVYYCHYVHYASASTVLPAFGVDAWGQGTTVTVSS
VL: DIVMTQSPLSLPVTPGEPASISCQASQELVHMNRNTYLHWYQQKPGQAPRLLIYKVSNRFPGVPDRFSGSGSGTDFTLKISRVEAEDVGVYYCAQGTSVPFTFGQGTKLEIK
B11: dBBDu183H P61T/dBBDu072L (antibody, name in Kabat numbering, V domains shown)
VH: QVQLVESGGGLVQPGRSLRLSCAASGFTFSNAWMHWVRQAPGKGLEWVAQIKDKGNAYAAYYATSVKGRFTISRDDSKNSIYLQMNSLKTEDTAVYYCHYVHYASASTVLPAFGVDAWGQGTTVTVSS
VL: DIVMTQSPLSLPVTPGEPASISCQASQELVHMNRNTYLHWYQQKPGQAPRLLIYKVSNRFPGVPDRFSGSGSGTDFTLKISRVEAEDVGVYYCAQGTSVPFTFGQGTKLEIK
B12: dBBDu183H L100dY/dBBDu072L (antibody, name in Kabat numbering, V domains shown)
VH: QVQLVESGGGLVQPGRSLRLSCAASGFTFSNAWMHWVRQAPGKGLEWVAQIKDKGNAYAAYYAPSVKGRFTISRDDSKNSIYLQMNSLKTEDTAVYYCHYVHYASASTVYPAFGVDAWGQGTTVTVSS
VL: DIVMTQSPLSLPVTPGEPASISCQASQELVHMNRNTYLHWYQQKPGQAPRLLIYKVSNRFPGVPDRFSGSGSGTDFTLKISRVEAEDVGVYYCAQGTSVPFTFGQGTKLEIK
B13: dBBDu183H P100eD/dBBDu072L (antibody, name in Kabat numbering, V domains shown)
VH: QVQLVESGGGLVQPGRSLRLSCAASGFTFSNAWMHWVRQAPGKGLEWVAQIKDKGNAYAAYYAPSVKGRFTISRDDSKNSIYLQMNSLKTEDTAVYYCHYVHYASASTVLDAFGVDAWGQGTTVTVSS
VL: DIVMTQSPLSLPVTPGEPASISCQASQELVHMNRNTYLHWYQQKPGQAPRLLIYKVSNRFPGVPDRFSGSGSGTDFTLKISRVEAEDVGVYYCAQGTSVPFTFGQGTKLEIK
B14: dBBDu183H P61W/dBBDu072L (antibody, name in Kabat numbering, V domains shown)
VH: QVQLVESGGGLVQPGRSLRLSCAASGFTFSNAWMHWVRQAPGKGLEWVAQIKDKGNAYAAYYAWSVKGRFTISRDDSKNSIYLQMNSLKTEDTAVYYCHYVHYASASTVLPAFGVDAWGQGTTVTVSS
VL: DIVMTQSPLSLPVTPGEPASISCQASQELVHMNRNTYLHWYQQKPGQAPRLLIYKVSNRFPGVPDRFSGSGSGTDFTLKISRVEAEDVGVYYCAQGTSVPFTFGQGTKLEIK
B15: dBBDu183H P61H/dBBDu072L (antibody, name in Kabat numbering, V domains shown)
VH: QVQLVESGGGLVQPGRSLRLSCAASGFTFSNAWMHWVRQAPGKGLEWVAQIKDKGNAYAAYYAHSVKGRFTISRDDSKNSIYLQMNSLKTEDTAVYYCHYVHYASASTVLPAFGVDAWGQGTTVTVSS
VL: DIVMTQSPLSLPVTPGEPASISCQASQELVHMNRNTYLHWYQQKPGQAPRLLIYKVSNRFPGVPDRFSGSGSGTDFTLKISRVEAEDVGVYYCAQGTSVPFTFGQGTKLEIK
B16: dBBDu183H P100eG/dBBDu072L (antibody, name in Kabat numbering, V domains shown)
VH: QVQLVESGGGLVQPGRSLRLSCAASGFTFSNAWMHWVRQAPGKGLEWVAQIKDKGNAYAAYYAPSVKGRFTISRDDSKNSIYLQMNSLKTEDTAVYYCHYVHYASASTVLGAFGVDAWGQGTTVTVSS
VL: DIVMTQSPLSLPVTPGEPASISCQASQELVHMNRNTYLHWYQQKPGQAPRLLIYKVSNRFPGVPDRFSGSGSGTDFTLKISRVEAEDVGVYYCAQGTSVPFTFGQGTKLEIK
B17: dBBDu183H P61R/dBBDu072L (antibody, name in Kabat numbering, V domains shown)
VH: QVQLVESGGGLVQPGRSLRLSCAASGFTFSNAWMHWVRQAPGKGLEWVAQIKDKGNAYAAYYARSVKGRFTISRDDSKNSIYLQMNSLKTEDTAVYYCHYVHYASASTVLPAFGVDAWGQGTTVTVSS
VL: DIVMTQSPLSLPVTPGEPASISCQASQELVHMNRNTYLHWYQQKPGQAPRLLIYKVSNRFPGVPDRFSGSGSGTDFTLKISRVEAEDVGVYYCAQGTSVPFTFGQGTKLEIK
B18: dBBDu183H P61D/dBBDu072L (antibody, name in Kabat numbering, V domains shown)
VH: QVQLVESGGGLVQPGRSLRLSCAASGFTFSNAWMHWVRQAPGKGLEWVAQIKDKGNAYAAYYADSVKGRFTISRDDSKNSIYLQMNSLKTEDTAVYYCHYVHYASASTVLPAFGVDAWGQGTTVTVSS
VL: DIVMTQSPLSLPVTPGEPASISCQASQELVHMNRNTYLHWYQQKPGQAPRLLIYKVSNRFPGVPDRFSGSGSGTDFTLKISRVEAEDVGVYYCAQGTSVPFTFGQGTKLEIK
B19: dBBDu183H P100eE/dBBDu072L (antibody, name in Kabat numbering, V domains shown)
VH: QVQLVESGGGLVQPGRSLRLSCAASGFTFSNAWMHWVRQAPGKGLEWVAQIKDKGNAYAAYYAPSVKGRFTISRDDSKNSIYLQMNSLKTEDTAVYYCHYVHYASASTVLEAFGVDAWGQGTTVTVSS
VL: DIVMTQSPLSLPVTPGEPASISCQASQELVHMNRNTYLHWYQQKPGQAPRLLIYKVSNRFPGVPDRFSGSGSGTDFTLKISRVEAEDVGVYYCAQGTSVPFTFGQGTKLEIK
B20: dBBDu183H P100eF/dBBDu072L (antibody, name in Kabat numbering, V domains shown)
VH: QVQLVESGGGLVQPGRSLRLSCAASGFTFSNAWMHWVRQAPGKGLEWVAQIKDKGNAYAAYYAPSVKGRFTISRDDSKNSIYLQMNSLKTEDTAVYYCHYVHYASASTVLFAFGVDAWGQGTTVTVSS
VL: DIVMTQSPLSLPVTPGEPASISCQASQELVHMNRNTYLHWYQQKPGQAPRLLIYKVSNRFPGVPDRFSGSGSGTDFTLKISRVEAEDVGVYYCAQGTSVPFTFGQGTKLEIK

The target of the experiment is T1, Human CD3eg linker. The experiment is described as follows: SPR, vs unmutated H183/L072.
Consider B1, for which the “fold change of affinity” value is 1.7 fold.
For B2 the value was 1.3 fold.
Regarding B3, the “fold change of affinity” value amounted to 1.9 fold.
For B4 the value was 1.5 fold.
For B5 the value was 1.8 fold; for B6, 1.5 fold.
For B7 the value was 1.8 fold.
With B8, the “fold change of affinity” value turned out to be 1.5 fold.
For B9 the value was 1.8 fold; for B10, 1.7 fold; for B11, 1 fold.
For B12 the value was 1.4 fold.
For B13 the value was 0.7 fold; for B14, 1.8 fold.
On to B15, for which the “fold change of affinity” value is 1.8 fold.
For B16 the value was 1.6 fold.
For B17 the value was 1.6 fold; for B18, 1.9 fold.
For B19 the value was 1 fold; for B20, 1.9 fold.
